Experiments:
[1] = target: T1, native (+)-bornyl diphosphate synthase from sage (Salvia officinalis) (Salvia officinalis, UniProt O81192); settings: read-out: Km (geranyl diphosphate), literature value; native enzyme; Croteau et al. 1989, 1990; cited from earlier work
T1 construct: for the corresponding native enzymes

[2] = target: native 1,8-cineole synthase from sage (Salvia officinalis) (Salvia officinalis, UniProt O81191); settings: read-out: Km (geranyl diphosphate), literature value; native enzyme; Croteau et al., Arch. Biochem. Biophys. 309:184-192, 1994; cited from earlier work
[3] = substrate: CC(C)=CCC/C(C)=C/COP(=O)(O)OP(=O)(O)O; test: cells, lysate or membranes named; settings: other: recombinant SCS; 0.45 to 45 μM [1-3H]geranyl diphosphate, saturating divalent metal ion; likely somewhat high (contaminating phosphatases); pH 6.0; 31.0 °C
[4] = target: the molecule itself; test: calibrated gel permeation chromatography (Superdex S-200); single peak of activity at Mr ~200,000; self-association (homodimer)
[5] = target: the molecule itself; test: gel permeation re-chromatography after thrombin removal of the GST tag; self-association (homodimer)

In the case of `CC(C)=CCC/C(C)=C/COP(=O)(O)OP(=O)(O)O` [geranyl diphosphate], the Km [1] is listed as 2 µM and the Km [2] is listed as 1.1 µM.

B1: Salvia officinalis 1,8-cineole synthase (SCS), recombinant, clone 3B5, SEQ ID No:4 (Salvia officinalis) (protein)
chain: RRTGGYQPTLWDFSTIQLFDSEYKEEKHLMRAAGMIAQVNMLLQEEVDSIQRLELIDDLRRLGISCHFDREIVEILNSKYYTNNEIDESDLYSTALRFKLLRQYDFSVSQEVFDCFKNDKGTDFKPSLVDDTRGLLQLYEASFLSAQGEETLHLARDFATKFLHKRVLVDKDINLLSSIERALELPTHWRVQMPNARSFIDAYKRRPDMNPTVLELAKLDFNMVQAQFQQELKEASRWWNSTGLVHELPFVRDRIVECYYWTTGVVERREHGYERIMLTKINALVTTIDDVFDIYGTLEELQLFTTAIQRWDIESMKQLPPYMQICYLALFNFVNEMAYDTLRDKGFNSTPYLRKAWVDLVESYLIEAKWYYMGHKPSLEEYMKNSWISIGGIPILSHLFFRLTDSIEEEDAESMHKYHDIVRASCTILRLADDMGTSLDEVERGDVPKSVQCYMNEKNASEEEAREHVRSLIDQTWKMMNKEMMTSSFSKYFVQVSANLARMAQWIYQHESDGFGMQHSLVNKMLRGLLFDRYE
With B1 the Km [3] was 7.0 µM.

B2: pGEX fusion form of SBS (glutathione-S-transferase fusion of the sage (+)-bornyl diphosphate synthase preprotein) (enzyme)
chain: MSIISMNVSILSKPLNCLHNLERRPSKALLVPCTAPTARLRASCSSKLQEAHQIRRSGNYQPALWDSNYIQSLNTPYTEERHLDRKAELIVQVRILLKEKMEPVQQLELIHDLKYLGLSDFFQDEIKEILGVIYNEHKCFHNNEVEKMDLYFTALGFRLLRQHGFNISQDVFNCFKNEKGIDFKASLAQDTKGMLQLYEASFLLRKGEDTLELAREFATKCLQKKLDEGGNEIDENLLLWIRHSLDLPLHWRIQSVEARWFIDAYARRPDMNPLIFELAKLNFNIIQATHQQELKDLSRWWSRLCFPEKLPFVRDRLVESFFWAVGMFEPHQHGYQRKMAATIIVLATVIDDIYDVYGTLDELELFTDTFKRWDTESITRLPYYMQLCYWGVHNYISDAAYDILKEHGFFCLQYLRKSVVDLVEAYFHEAKWYHSGYTPSLDEYLNIAKISVASPAIISPTYFTFANASHDTAVIDSLYQYHDILCLAGIILRLPDDLGTSYFELARGDVPKTIQCYMKETNASEEEAVEHVKFLIREAWKDMNTAIAAGYPFPDGMVAGAANIGRVAQFIYLHGDGFGVQHSKTYEHIAGLLFEPYA
B2: binds [4].

B3: SBS protein after thrombin removal of the glutathione-S-transferase fusion tag ((+)-bornyl diphosphate synthase preprotein) (enzyme)
chain: MSIISMNVSILSKPLNCLHNLERRPSKALLVPCTAPTARLRASCSSKLQEAHQIRRSGNYQPALWDSNYIQSLNTPYTEERHLDRKAELIVQVRILLKEKMEPVQQLELIHDLKYLGLSDFFQDEIKEILGVIYNEHKCFHNNEVEKMDLYFTALGFRLLRQHGFNISQDVFNCFKNEKGIDFKASLAQDTKGMLQLYEASFLLRKGEDTLELAREFATKCLQKKLDEGGNEIDENLLLWIRHSLDLPLHWRIQSVEARWFIDAYARRPDMNPLIFELAKLNFNIIQATHQQELKDLSRWWSRLCFPEKLPFVRDRLVESFFWAVGMFEPHQHGYQRKMAATIIVLATVIDDIYDVYGTLDELELFTDTFKRWDTESITRLPYYMQLCYWGVHNYISDAAYDILKEHGFFCLQYLRKSVVDLVEAYFHEAKWYHSGYTPSLDEYLNIAKISVASPAIISPTYFTFANASHDTAVIDSLYQYHDILCLAGIILRLPDDLGTSYFELARGDVPKTIQCYMKETNASEEEAVEHVKFLIREAWKDMNTAIAAGYPFPDGMVAGAANIGRVAQFIYLHGDGFGVQHSKTYEHIAGLLFEPYA
B3: binds [5].
